Source: US20250297004A1, “NECTIN-4 BINDING AGENTS” (INNATE PHARMA, priority 2022, published 2025)
Changes are numbered by the printed parent chain.

B1: N41 (antibody, V domains shown)
VH: QVQLKQSGPGLVQPSQSLSITCTVSGFSLTNYGVHWVRQSPGKGLEWLGVIWSGGSTDYNAAFISRLSISKDTSKSQVFFKMNSLQADDTAIYYCARELIHAMDNWGQGTSVTVSS
VL: DIQMTQSPASLSVSVGETVTITCRASENIYSNLAWYQQKQGNSPQLLVFAATNLADGVPSRFSGSGSGTQYSLKINSLQSEDFGTYYCQHFWGTPTFGGGTKLEIK
B2: 5E7 (antibody, V domains shown)
VH: QVQLQQPGAELVKPGASVKLSCKASGYIFTSYWMHWVKQRPGQGLEWIGEIDPSDSYTNYNQKFKGKATLTLDKSSSTTYMQLSSLTSEDSAVYYCVRGYGNYGDYWGQGTTLTVSSASTKGP
VL: DVVMTQAAFSNPVTLGTSASISCRSSKSLLHSNGITYLYWYLQKPGQSPQLLIYQMSNLASGVPDRFSSSGSGTDFTLRISRVEAEDVGVYYCAQNLELPWTFGGGTKLEIKRTVAAP
B3: chimeric parental 5E7 antibody (antibody, V domains shown)
VH: QVQLQQPGAELVKPGASVKLSCKASGYIFTSYWMHWVKQRPGQGLEWIGEIDPSDSYTNYNQKFKGKATLTLDKSSSTTYMQLSSLTSEDSAVYYCVRGYGNYGDYWGQGTTLTVSS
VL: DVVMTQAAFSNPVTLGTSASISCRSSKSLLHSNGITYLYWYLQKPGQSPQLLIYQMSNLASGVPDRFSSSGSGTDFTLRISRVEAEDVGVYYCAQNLELPWTFGGGTKLEIKR
notes: Chimeric antibody, murine variable domains with human constant regions; also called ch5E7; CHG1-M-1N4-5E7

Key:
[1] = molecular target: T1, human Nectin-4 Mutant 8 (T190A/T191Q/S193A) (Homo sapiens, UniProt Q96NY8, S193A/T190A/T191Q); experiment: Epitope mapping using Nectin-4 point mutants; format: binding
T1 construct: expressed in transfected cells; host or cells: HEK293T
T1 sequence (Q96NY8 32-510 T190A/T191Q/S193A): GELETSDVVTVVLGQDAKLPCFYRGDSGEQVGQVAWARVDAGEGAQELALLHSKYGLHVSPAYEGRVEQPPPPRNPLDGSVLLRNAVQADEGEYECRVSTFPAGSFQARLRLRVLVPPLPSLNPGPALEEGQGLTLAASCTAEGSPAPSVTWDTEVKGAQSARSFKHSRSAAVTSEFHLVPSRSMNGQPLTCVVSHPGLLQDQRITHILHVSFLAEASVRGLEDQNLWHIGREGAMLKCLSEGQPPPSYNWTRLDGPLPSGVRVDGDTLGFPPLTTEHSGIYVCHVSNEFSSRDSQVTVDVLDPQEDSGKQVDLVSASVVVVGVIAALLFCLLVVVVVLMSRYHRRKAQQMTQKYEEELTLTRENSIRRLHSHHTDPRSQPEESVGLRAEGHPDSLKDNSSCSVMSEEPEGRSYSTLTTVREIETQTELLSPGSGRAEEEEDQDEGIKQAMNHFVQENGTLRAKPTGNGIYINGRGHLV
Description: (§1) Combined with the published structures of the Nectin-4 domains, Nectin-4 mutations at surface exposed amino acids residues were designed. Nectin-4 domain structure was modelled based on Protein Data Bank reference: 4FRW (domains V et C1). Human Nectin-4 used was NCBI Reference Sequence: NP_112178.2, mouse Nectin-4 used was NCBI Reference Sequence: AAL79833.1, cynomolgus Nectin-4 used was NCBI Reference Sequence: XP_005541277.1, rat Nectin-4 used was NCBI Reference Sequence: NP_001102546.1. The cells expressing the Nectin-4 mutants are then be used for testing anti-Nectin-4 antibodies for loss of binding to different Nectin-4 mutants to identify antibodies that bind to the same site on Nectin-4. […] FIGS. 8A and 8B show different view of a molecular model of the human Nectin-4 protein, indicating the position of substituted residues in mutants 1, 2, 3, 4, 5, 6, 7, 8 and 9.
(§2) Nectin-4 mutants were generated by PCR. The sequences amplified were run on agarose gel and purified using the Macherey Nagel PCR Clean-Up Gel Extraction kit. The purified PCR products generated for each mutant were then ligated into an expression vector, with the ClonTech InFusion system. The vectors containing the mutated sequences were prepared as Miniprep and sequenced. After sequencing, the vectors containing the mutated sequences were prepared as Midiprep using the Promega PureYield™ Plasmid Midiprep System. HEK293T cells were grown in DMEM medium (Invitrogen), transfected with vectors using Invitrogen's Lipofectamine 2000 and incubated at 37° C. in a CO2 incubator for 48 hours prior to testing for transgene expression. The targeted amino acid mutations are shown in Table 13 below, listing the residue present in wild-type Nectin-4/position of residue/residue present in mutant Nectin-4, with position reference being to the Nectin-4 protein with leader peptide shown in SEQ ID NO: 1.
(§3) (+) means that antibodies-Nectin-4 association occurs.

[2] = molecular target: T2, human Nectin-4 Mutant 7 (S195A/K197T/S199A) (Homo sapiens, UniProt Q96NY8, K197T/S195A/S199A); experiment: Epitope mapping using Nectin-4 point mutants; format: binding
T2 construct: expressed in transfected cells; host or cells: HEK293T
T2 sequence (Q96NY8 32-510 S195A/K197T/S199A): T1 sequence (Q96NY8 32-510 T190A/T191Q/S193A) with A159T, Q160T, A162S, S164A, K166T, S168A
Description: as §1, §2, §3

[3] = molecular target: T3, human Nectin-4 Mutant 7bis (A72P/G73N/K197T/S199A) (Homo sapiens, UniProt Q96NY8, A72P/G73N/K197T/S199A); experiment: Epitope mapping using Nectin-4 point mutants; format: binding
T3 construct: expressed in transfected cells; host or cells: HEK293T
T3 sequence (Q96NY8 32-510 A72P/G73N/K197T/S199A): T1 sequence (Q96NY8 32-510 T190A/T191Q/S193A) with A41P, G42N, A159T, Q160T, A162S, K166T, S168A
Description: as §1, §2, §3

[4] = molecular target: T4, human Nectin-4 Mutant 6 (human, UniProt Q96NY8 32-510); experiment: binding to HEK293T cells expressing Nectin-4 mutant
T4 construct: Expressed on transfected HEK293T cells; also called H238A/I239T/H241Q
T4 chain: T1 sequence (Q96NY8 32-510 T190A/T191Q/S193A) with A159T, Q160T, A162S, H207A, I208T, H210Q

| Molecule | association with Mutant 8 [1] | association with Mutant 7 [2] | association with Mutant 7bis [3] | binding result [4] |
| --- | --- | --- | --- | --- |
| B1 | + | + | + | binds |
| B2 | + | − | − |  |
| B3 |  |  |  | binds |
